B1: library; numbered along this chain (parent)
chain: MRKPRAAVGSGHRKQAASQEGRQKHAKNNSQAKPSACDGLARQPEEVVLQASVSSYHLFRDVAEVTAFRGSLLSWYDQEKRDLPWRRRAEDEMDLDRRAYAVWVSEVMLQQTQVATVINYYTGWMQKWPTLQDLASASLEEVNQLWAGLGYYSRGRRLQEGARKVVEELGGHMPRTAETLQQLLPGVGRYTAGAIASIAFGQATGVVDGNVARVLCRVRAIGADPSSTLVSQQLWGLAQQLVDPARPGDFNQAAMELGATVCTPQRPLCSQCPVESLCRARQRVEQEQLLASGSLSGSPDVEECAPNTGQCHLCLPPSEPWDQTLGVVNFPRKASRKPPREESSATCVLEQPGALGAQILLVQRPNSGLLAGLWEFPSVTWEPSEQLQRKALLQELQRWAGPLPATHLRHLGEVVHTFSHIKLTYQVYGLALEGQTPVTTVPPGARWLTQEEFHTAAVSTAMKKVFRVYQGQQPGTCMGSKRSQVSSPCSRKKPRMGQQVLDNFFRSHISTDAHSLNSAAQ

Variants of: B1
Assay: 8OG:A repair function score (normalized; synonymous = 0, nonsense = -1) (normalized log-likelihood score); higher = more repair activity (WT-like)
Details: with 8OG:A DNA repair reporter (GFP) in HEK-293 MUTYH KO cells
Procedure, shortened: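 GFP+ (repair) and GFP− bins of viable mCherry+ cells were collected at 72 h from MUTYH knockout HEK-293 cells bearing lentiviral MUTYH cDNA NNN codon-scan libraries in 10 pg/ml doxycycline, co-transfected with an 8OG:A GFP repair reporter and mCherry. Tile amplicons were sequenced, and per-tile Rosace fitness scores were normalized to a repair function score anchored on synonymous and nonsense distributions. Synonymous medians were set to 0 and nonsense to -1, with variants under 300 counts per million at the start removed.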
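Further: cells sorted at 72 h after reporter transfection.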

8OG:A repair function score of substitutions, site by site:
S459: D -0.823; I -0.53; W -0.631; G -0.212; Q -0.749; F -0.45; V -0.746; P -0.197; C -0.291; A -0.218; R -1.13; L -0.866; E -1.11; T -0.392; K -1.03; H -0.136; N -0.679; M -0.693; Y -0.268
A457: P -0.15; D -0.44; Y -0.48; K -0.815; C -0.467; Q -0.402; H -0.398; L -0.583; E -0.495; N -0.58; R -0.672; T -0.533; F -0.356; M -0.585; G -0.183; W -0.671; V -0.205; S -0.432; I -0.537
A456: N -0.487; F -0.61; V -0.16; D -0.523; Q -0.514; M -0.328; I -0.12; S -0.267; Y -0.476; L -0.287; K -0.248; R -0.498; C -0.168; G -0.246; W -0.531; P -0.814; E -0.405; T -0.365; H -0.479
E452: Q -0.335; L -0.252; A -0.387; R -0.0533; P -0.856; S -0.0485; T 0.0217; C -0.0884; G -0.228; K -0.211; F -0.387; I -0.47; Y -0.442; H -0.275; W -0.631; M -0.205; N -0.395; D -0.0961; V -0.351
Q450: A -0.0533; W -0.011; C -0.0453; N 0.172; H 0.0291; L -0.12; K 0.354; P -0.118; F 0.013; D -0.113; S -0.114; M -0.0723; I -0.0986; V 0.073; T 0.0482; R 0.0701; G -0.0458; Y 0.286; E 0.156
T449: S 0.084; N -0.203; L -0.0459; D -0.211; P -0.0904; W -0.634; H -0.131; G -0.132; E -0.0743; K -0.144; M -0.0649; Y 0.0178; R 0.00957; Q -0.0362; F -0.363; I -0.282; C -0.0406; V -0.286; A 0.0699
F453: Q -0.887; V -0.184; I -0.334; S -0.421; H -0.758; R -1.09; W -0.274; E -1.1; G -0.893; P -0.896; A -0.66; L -0.306; N -1.25; C -0.791; Y -0.106; D -1.22; M -0.51; K -0.87; T -0.694
E451: I -0.186; V -0.135; Q -0.157; T -0.12; L -0.179; S -0.131; R 0.0453; N 0.26; H 0.0926; P -0.158; G -0.0413; Y 0.131; M 0.0404; C -0.198; D -0.178; W -0.143; F -0.282; A -0.0912; K -0.241
T455: R -0.0505; G -0.211; Q 0.174; I 0.0349; W -0.419; P -0.714; F -0.273; M -0.111; E -0.119; D -0.394; C 0.318; Y -0.209; K -0.247; S 0.128; A -0.141; H 0.0572; L -0.171; V -0.122; N 0.0652
H454: M -0.158; E -0.068; V -0.00673; D -0.376; W 0.536; R -0.00791; N 0.24; L -0.234; F -0.268; A 0.182; K -0.0092; G -0.0392; C 0.0357; Y -0.087; S -0.168; I -0.184; Q -0.0422; P -0.139; T 0.153
K463: D -0.287; W -0.075; R -0.0765; M -0.0542; A -0.157; I -0.089; S -0.241; Q -0.183; G -0.303; P -0.617; Y -0.191; F -0.101; E -0.265; T -0.141; V -0.129; H -0.12; N -0.338; C -0.196; L -0.0958
M462: F -0.254; T 0.0162; P -0.578; R -1.12; I -0.13; K -1.21; Y -0.369; G -0.215; H -0.138; S -0.0759; V -0.097; W -0.592; A -0.0163; Q -0.198; C -0.0756; L -0.449; D -0.463; E -0.603; N -0.31
L448: W -0.658; S -0.184; T -0.164; A -0.105; R -0.341; F -0.205; Y -0.324; N -0.42; Q -0.202; P -0.895; E -0.411; I -0.0362; H -0.0456; M 0.207; K -0.743; C -0.0248; G -0.516; V -0.117; D -0.727
W447: R -0.794; T -1.01; P -0.941; V -0.846; G -1.04; H -0.881; L -0.567; Q -1.16; M -0.801; K -0.937; I -0.784; Y -0.455; S -1.01; N -0.921; F -0.355; E -1.14
V458: S -0.192; I -0.0811; N -0.786; E -0.975; A -0.667; C -0.27; M -0.204; G -0.853; D -0.952; F -0.4; Q -0.711; T -0.214; P -0.535; K -0.57; R -0.663; W -0.709; H -0.592; L -0.294; Y -0.724
A461: L -0.0454; N -0.222; G 0.00127; S -0.119; R -0.632; C -0.0899; F -0.265; E -0.842; Y -0.726; T -0.23; W -1.22; K -0.813; D -0.732; M -0.276; P -0.267; V -0.124; I -0.152; H -0.545; Q -0.495
K464: C -0.49; E -0.152; M -0.266; G -0.315; N -0.146; A -0.184; I -0.441; L -0.298; D -0.393; P -0.968; R -0.123; Q -0.245; F -0.702; H -0.313
T460: N -0.00346; F -0.157; W -0.305; V -0.029; Y -0.219; Q -0.131; K -0.0077; R -0.0566; S -0.019; L -0.235; D -0.312; A -0.00746; M -0.152; I -0.102; E -0.212; G -0.0856; C -0.0915; P -0.347; H -0.38

From the supplement of paper PMC11908140
